# B1: Positive control group: 0.15 mg/mL ovalbumin solution, available from Sigma, USA (protein, UniProt P01012 2-386, looked up)
# Ovalbumin: GSIGAASMEFCFDVFKELKVHHANENIFYCPIAIMSALAMVYLGAKDSTRTQINKVVRFDKLPGFGDSIEAQCGTSVNVHSSLRDILNQITKPNDVYSFSLASRLYAEERYPILPEYLQCVKELYRGGLEPINFQTAADQARELINSWVESQTNGIIRNVLQPSSVDSQTAMVLVNAIVFKGLWEKAFKDEDTQAMPFRVTEQESKPVQMMYQIGLFRVASMASEKMKILELPFASGTMSMLVLLPDEVSGLEQLESIINFEKLTEWTSSNVMEERKIKVYLPRMKMEEKYNLTSVLMAMGITDVFSSSANLSGISSAESLKISQAVHAAHAEINEAGREVVGSAEAGVDAASVSEEFRADHPFLFCIKHIATNAVLFFGRCVSP
# Experiments:
# [1] = system: KDR mRNA; experiment: Gene inhibitory effect of siRNA-PEG-lipid particle composition after cell delivery in A375 cells; format: cell-based; settings: particles prepared from PEG-lipids and anti-KDR siRNA, 24 h and 48 h after transfection
# Procedure: (1) ARPE-19 cells were cultured in a DMEM/F12+12% FBS+double antibody medium (containing 100 U/mL Penicillin, 100 μg/mL Streptomycin) and placed in an incubator at 37° C. with 5% CO2 and saturated humidity. 24 h before the experiment, the cells were seeded onto a 12-well plate at 1.2×10^5 cell/well and cultured overnight. (2) 50 μL of diluted anti-KDR siRNA:compound 1 (1:10), anti-KDR siRNA:compound 2 (1:10), and anti-KDR siRNA:compound 3 (1:10) (in molar ratios: the siRNA concentration was 20 μM) from […] with an OPTI-MEM culture medium were separately mixed with 50 μL of a diluted Lipofectamine 3000™ transfection reagent from 3 μL with an OPTI-MEM culture medium for positive control, followed by gently shaking, and the mixed solutions were left to stand for 15 min. In addition, a blank group, an NC group, and an NC-RL group were set.
# Anti-KDR siRNA is an siRNA that inhibits VEGFR2 mRNA expression, and the preparation method therefor is described in patent document CN202010229195.2: the sequence is as follows: • Sense strand: 5′-GGAGUGAGAUGAAGAAAUU-3′; • Antisense strand: 5′-AAUUUCUUCAUCUCACUCC-3′. (3) The medium was refreshed for the cells in each well in the cell plate, an antibiotic-free culture medium was added at 900 μL/well, and then 100 μL of the mixed solution was added into each well, finally the total volume of each well being 1000 μL. The siRNA (or siRNA NC, or siR-NC RL) transfection concentration was 50 nM. (4) 24 h and 48 h after transfection, the 12-well plate was taken out from the incubator at 37° C. with 5% CO2, and the cells were harvested for RNA extraction for subsequent detection.
# The relative expression level of KDR mRNA was calculated by AACt with GAPDH as an endogenous reference gene: mRNA expression levels were normalized for each group with the expression level for the blank group as 100%.
# The foregoing procedure was similar to that of Example 4 except that the culture medium for the A375 cells was a DMEM culture medium containing 10% FBS (containing 100 U/mL Penicillin, 100 μg/mL of Streptomycin).
# [2] = system: guinea pigs; experiment: Allergy study of PEG-lipids in guinea pigs: systemic sensitization symptom grading; format: in vivo, guinea pig
# Procedure: (§1) 48 healthy guinea pigs which were fed with food normally for 5 days were randomly divided into 6 groups, with 8 guinea pigs for each group.
# (§2) Sensitization was carried out by intraperitoneal injection, and the administration was carried out once every other day at a volume of 1 mL/guinea pig for 4 times in total. On the second day after the last sensitization, each group of guinea pigs was challenged by applying a corresponding liquid medicine to the toes thereof via intravenous injection at a dose of 2 mL/guinea pig. […] Blood was collected 40 min after challenging and drug withdrawal, anticoagulated with heparin, and made into blood plasma.
# During sensitization and at the time of challenge administration, animals were observed and recorded for the onset and duration of symptoms, such as nasal scratching, sneezing, restlessness, jumping, panting, and purpura, and the score and grade of symptoms were determined according to the criteria for grading symptoms of systemic sensitization (Table 3).
# [3] = system: IgE; experiment: Plasma IgE level after challenge administration in guinea pigs; format: in vivo; settings: guinea pig plasma, 40 min after challenge
# Procedure: 48 healthy guinea pigs which were fed with food normally for 5 days were randomly divided into 6 groups, with 8 guinea pigs for each group. Group A: negative control group (0.9% sodium chloride injection): group B: positive control group (0.15 mg/mL ovalbumin solution. available from Sigma. USA, lot No. DHO15-4): group C: M-PEG47-DTDPAM (i.e., compound 1. prepared in Example 1); group D: M-PEG47-DTDPA (i.e., compound 2. prepared in Example 2): group E: M-DTDPAM-2000 (available from Tianjin JenKem Technology Co., Ltd., lot No. ZZ409P002); group F: M-DTDPA-2000 (available from Tianjin JenKem Technology Co., Ltd., lot No. ZZ409P004).
# Sensitization was carried out by intraperitoneal injection, and the administration was carried out once every other day at a volume of 1 mL/guinea pig for 4 times in total. On the second day after the last sensitization, each group of guinea pigs was challenged by applying a corresponding liquid medicine to the toes thereof via intravenous injection at a dose of 2 mL/guinea pig. The animal state was observed daily during sensitization, the reaction of guinea pigs was continuously observed for 40 min at 15 min before and after challenging via intravenous injection, and the time of onset and disappearance of symptoms was recorded. Blood was collected 40 min after challenging and drug withdrawal, anticoagulated with heparin, and made into blood plasma.
# [4] = system: histamine; experiment: Plasma histamine level after challenge administration in guinea pigs; format: in vivo, guinea pig
# Procedure: as §1, §2
molecule,measurement,setting,value
CCCCCCCCCCCCCCN(CCCCCCCCCCCCCC)C(=O)CCOCCOCCOCCOCCOCCOCCOCCOCCOCCOCCOCCOCCOCCOCCOCCOCCOCCOCCOCCOCCOCCOCCOCCOCCOCCOCCOCCOCCOCCOCCOCCOCCOCCOCCOCCOCCOCCOCCOCCOCCOCCOCCOCCOCCOCCOCCOCCOC [compound 1],inhibitory effect on KDR mRNA (relative expression level of KDR mRNA),[1],significant and continuous inhibitory effect
CCCCCCCCCCCCCC(=O)OCC(COCCOCCOCCOCCOCCOCCOCCOCCOCCOCCOCCOCCOCCOCCOCCOCCOCCOCCOCCOCCOCCOCCOCCOCCOCCOCCOCCOCCOCCOCCOCCOCCOCCOCCOCCOCCOCCOCCOCCOCCOCCOCCOCCOCCOCCOCCOC)OC(=O)CCCCCCCCCCCCC (centres unmarked) [compound 3],inhibitory effect on KDR mRNA (relative expression level of KDR mRNA),[1],significant and continuous inhibitory effect
CCCCCCCCCCCCCCN(CCCCCCCCCCCCCC)CCCOCCOCCOCCOCCOCCOCCOCCOCCOCCOCCOCCOCCOCCOCCOCCOCCOCCOCCOCCOCCOCCOCCOCCOCCOCCOCCOCCOCCOCCOCCOCCOCCOCCOCCOCCOCCOCCOCCOCCOCCOCCOCCOCCOCCOCCOCCOCCOC [compound 2],inhibitory effect on KDR mRNA (relative expression level of KDR mRNA),[1],significant and continuous inhibitory effect
B1,Allergic symptoms (grade),"[2]; after challenge administration, grade per Table 3",extremely positive
same,Mean score,"[2]; i.p. sensitization 4 times, i.v. challenge, scoring per Table 3",2.8
same,IgE level,[3],286.33 ± 34.67 ng/mL
same,plasma histamine level compared with group A,[4]; guinea pig plasma after challenge,significantly different from that of group A
same,Histamine level,"[4]; guinea pig plasma, 40 min after challenge",12.21 ± 4.25 ng/mL

# — US20240261221A1, “POLYOL-MODIFIED LIPID COMPOUND AND PREPARATION METHOD AND APPLICATION THEREOF” (JENKEM TECHNOLOGY CO., LTD. (TIANJIN), priority 2021, published 2024)
